Experimental data taken from paper PMC3364216.

Biological target: RecU protein from Mycoplasma genitalium (RecUMge) (Mycoplasma genitalium) (UniProt Q49422)

## RuvA homologue from Mycoplasma genitalium (RuvAMge), H10-tagged (from UniProt Q49424 1-205) (natural protein)
  HJ resolution activity of RecUMge (0.2 uM) on HJ 1.1 preincubated with RecUMge before RuvAMge (0 to 4 uM) was added; percent inhibition (≥20% only at ≥250 nM): > 80%
  HJ resolution activity of RecUMge (0.2 uM) on HJ 1.1 preincubated with RuvAMge (0 to 4 uM) before RecUMge was added; percent reduction of activity (about 20% at 60 nM, highest at 1 uM or more): > 80%
